In patent US20210107971A1 (UCB, published 2021):
Positions count from the first letter of the chain named. In names and notes the source's numbering stands.

B1: VR6470 gL3; gH23-S56N-N102H (antibody, human IgG4 S228P, kappa, V domains shown)
VH: EVQLLESGGGLVQPGGSLRLSCAVSGIDLSSHDMYWVRQAPGKGLEYIGAIYASGNTYYASWAKGRFTISRDNSKNTVYLQMNSLRAEDTAVYYCARIHYGHSGGLWGQGTLVTVSS
VL: DIQMTQSPSSLSASVGDRVTITCQASQSVYKNNYLAWFQQKPGKAPKQLIYGASTLASGVPSRFSGSGSGTQFTLTISSLQPEDFATYYCAGYKGGRNDGFAFGGGTKVEIKR
notes: Full-length humanized human IgG4P
B2: VR6470 gL3; gH36-S56N-N102H (antibody, human IgG4 S228P, kappa, V domains shown)
VH: B1 VH with N73S, V78L
VL: B1 VL
notes: as for B1
B3: VR6470 gL3-N33R; gH36-S56N-N102H (antibody, human IgG4 S228P, kappa, V domains shown)
VH: B1 VH with N73S, V78L
VL: B1 VL with N33R
notes: as for B1
B4: AS111-120 (peptide)
peptide: Ac-GILEDMPVDP-NH2
notes: Synthetic peptide of human alpha synuclein
B5: AS127-136 (peptide)
peptide: Ac-MPSEEGYQDY-NH2
notes: as for B4
B6: AS113-122 (peptide)
peptide: Ac-LEDMPVDPDN-NH2
notes: as for B4
B7: AS109-118 (peptide)
peptide: Ac-QEGILEDMPV-NH2
notes: as for B4
B8: AS119-128 (peptide)
peptide: Ac-DPDNEAYEMP-NH2
notes: as for B4
B9: AS104-113 (peptide)
peptide: Ac-EEGAPQEGIL-NH2
notes: as for B4
B10: 6470 rabbit Fab with heavy chain mutation H31K (Fab, V domains shown)
VH: QSVEESGGRLVTPGTPLTLTCTVSGIDLSSKDMYWVRQAPGKGLEYIGAIYASGSTYYASWAKGRFTISKTSTTVDLKMTSLTTEDTATYFCARIHYGNSGGLWGQGTLVTVSS
VL: AIVMTQTPSSKSVAVGDTVTINCQASQSVYKNNYLAWFQQKPGQPPKQLIYGASTLASGVPSRFKGSGSGTQFTLTISDVVCDDAATYYCAGYKGGRNDGFAFGGGTEVVVKR
B11: 6470 rabbit Fab with heavy chain mutation S53N (Fab, V domains shown)
VH: B10 VH with K31H, S53N
VL: B10 VL
B12: 6470 rabbit Fab with heavy chain mutation N99W (Fab, V domains shown)
VH: B10 VH with K31H, N99W
VL: B10 VL
B13: 6470 rabbit Fab with heavy chain mutation N99Q (Fab, V domains shown)
VH: B10 VH with K31H, N99Q
VL: B10 VL
B14: 6470 rabbit Fab with light chain mutation N33K (Fab, V domains shown)
VH: B10 VH with K31H
VL: B10 VL with N33K
B15: 6470 rabbit Fab with light chain mutation N33R (Fab, V domains shown)
VH: B10 VH with K31H
VL: B10 VL with N33R
B16: 6470 rabbit Fab with heavy chain mutation N99K (Fab, V domains shown)
VH: B10 VH with K31H, N99K
VL: B10 VL
B17: 6470 rabbit Fab with heavy chain mutation H31Q (Fab, V domains shown)
VH: B10 VH with K31Q
VL: B10 VL
B18: 6470 rabbit Fab with heavy chain mutation N99R (Fab, V domains shown)
VH: B10 VH with K31H, N99R
VL: B10 VL
B19: 6470 rabbit Fab with heavy chain mutation N99H (Fab, V domains shown)
VH: B10 VH with K31H, N99H
VL: B10 VL
B20: 6470 rabbit Fab with heavy chain mutation H31R (Fab, V domains shown)
VH: B10 VH with K31R
VL: B10 VL
B21: 6470 rabbit Fab with light chain mutation Y30W (Fab, V domains shown)
VH: B10 VH with K31H
VL: B10 VL with Y30W
B22: 6470 rabbit Fab with heavy chain mutation S55N (Fab, V domains shown)
VH: B10 VH with K31H, S55N
VL: B10 VL
B23: 6470gL3gH46 (antibody, V domains shown)
VH: B1 VH with V24A, N56S, H102N
VL: B1 VL
B24: 6470gL6gH23 (antibody, V domains shown)
VH: B1 VH with N56S, H102N
VL: B1 VL with Q48S
B25: 6470gL6gH36 (antibody, V domains shown)
VH: B1 VH with N56S, N73S, V78L, H102N
VL: B1 VL with Q48S
B26: 6470gL8gH36 (antibody, V domains shown)
VH: B1 VH with N56S, N73S, V78L, H102N
VL: B1 VL with Q72D
B27: 6470gL3gH27 (antibody, V domains shown)
VH: B1 VH with G49S, N56S, R71K, N73S, H102N
VL: B1 VL
B28: 6470gL3gH50 (antibody, V domains shown)
VH: B1 VH with V24A, N56S, N73S, V78L, H102N
VL: B1 VL
B29: 6470gL3gH26 (antibody, V domains shown)
VH: B1 VH with I48V, N56S, R71K, N73S, H102N
VL: B1 VL
B30: 6470gL8gH23 (antibody, V domains shown)
VH: B1 VH with N56S, H102N
VL: B1 VL with Q72D
B31: 6470gL3gH35 (antibody, V domains shown)
VH: B1 VH with N56S, R71K, N73S, R97K, H102N
VL: B1 VL

The binders below were run against T1, purified recombinant human alpha synuclein fibrils (human, UniProt P37840 1-140) (assay: cell-based or functional assay).

IC50, inhibition of alpha synuclein aggregation induced by fibrils in HEK293F cells expressing alpha synuclein (% pSer129+ cells)	Binder
< 5 nM	B1
< 5 nM	B2
< 5 nM	B3

The binders below were run against T1, purified recombinant human alpha … (assay: SPR, Biacore T200, as in Example 3; full-length IgG4P injected).
Method: (§1) Interaction kinetics were determined by using surface plasmon resonance technology on a Biacore T200 instrument. Three different ligands including recombinant full-length human alpha synuclein monomer, purified recombinant human alpha synuclein fibrils, and purified recombinant mouse alpha synuclein fibrils, prepared as described herein, were each immobilized on three different flow cells of a CM5 chip surface using amine-coupling chemistry. The three ligands were prepared in 10 mM NaAc, pH 3.5, and immobilized onto separate flow cell surfaces to reach an immobilization level of about 30 response units (RU) for alpha synuclein monomer, about 40 RU for human alpha synuclein fibrils, and about 300 RU for mouse alpha synuclein fibrils respectively, at a flow rate of 10 μI/min. The buffer HBS-EP+(GE healthcare Bio-Sciences AB) was used as running buffer for both ligand immobilization and kinetics assay. […] The surface was regenerated by one injection of 50 mM HCl for 90 s at 10 μI/min, and another injection of 50 mM HCl for 60 s at 10 μI/min. The data were analyzed using the Biacore T200 evaluation software (version 3.0) using the bivalent analyte model with assumed no bulk contribution (RI=0) and global Rmax for IgG format, and 1:1 model with flexible bulk contribution (local RI) and global Rmax.

Kd	koff	kon	Binder
0.068 nM	7.08e-05 s⁻¹	1.04e+06 M⁻¹ s⁻¹	B1
0.059 nM	7.44e-05 s⁻¹	1.25e+06 M⁻¹ s⁻¹	B2
0.053 nM	0.000126 s⁻¹	2.39e+06 M⁻¹ s⁻¹	B3

What follows are binders tested against T2, recombinant full-length human alpha synuclein monomer (human, UniProt P37840 1-140) in the same assay as above.
Method: as §1

Kd	koff	kon	Binder
4.62 nM	0.00445 s⁻¹	966000 M⁻¹ s⁻¹	B1
4.1 nM	0.00488 s⁻¹	1.19e+06 M⁻¹ s⁻¹	B2
1.31 nM	0.00648 s⁻¹	4.97e+06 M⁻¹ s⁻¹	B3

These binders were tested against T3, monoclonal 6470 rabbit Fab (assay: competitive SPR: 6470 Fab pre-incubated with peptide, injected over immobilised human alpha synuclein monomer and fibrils; %inhibition).
T3 construct: Fab heavy chain entry carries a C-terminal His tag
Method: Recombinant human alpha synuclein monomer and pre-formed alpha synuclein fibrils were immobilized on a CM5 chip using a Biacore 3000 instrument (GE Healthcare). Following activation of the carboxymethyl dextran surface by injection of 100 μl of a fresh 1:1 (v/v) mixture of 50 mM N-hydroxysuccimide and 200 mM 1-ethyl-3-(3-dimethylaminopropyl)-carbodiimide at a flow rate of 10 μl/min HBS-EP (GE Healthcare) as running buffer, coupling was achieved by injecting 100 μl of monomer and fibrils, at 5 μM in 10 mM acetate pH 5.0, over separate flow cells. A reference flow cell was activated in the same manner and then all flow cell surfaces were deactivated with a 50 μl pulse of 1 M ethanolamine HCl pH 8.5.
Peptide solutions were prepared in running buffer at 100 μM and a peptide blank control prepared as a 1 in 100 dilution of DMSO in running buffer. […] Sensograms were recorded for each sample by injecting 30 μl of the mixture at 10 μl/min and recording a report point 5 seconds before the end of the injection. […] Control cycles were alternated with peptide cycles.

binding result	Binder
no binding	Ac-PVDPDNEAYE-NH2 [AS117-126]
no binding	B4
no binding	Ac-SEEGYQDYEP-NH2 (peptide, UniProt P37840 129-138, looked up, synthetic 10-mer peptide) [129-138]
no binding	B5
no binding	B6
no binding	B7
no binding	B8
no binding	B9
no binding	Ac-EGYQDYEPEA-OH (peptide, UniProt P37840 131-140, looked up, synthetic 10-mer peptide) [131-140]

The binders below were run against T1, purified recombinant human alpha … (assay: SPR, Biacore T200, as in Example 3; Fab injected;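 note: ligands amine-coupled on CM5 chip flow cells, HBS-EP+ running buffer, kinetic data fitted with 1:1 model allowing local bulk contribution and global Rmax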).
Method: as §1

Kd	koff	kon	Binder
46.7 nM	0.423 s⁻¹	9.06e+06 M⁻¹ s⁻¹	B10
49.6 nM	0.286 s⁻¹	5.75e+06 M⁻¹ s⁻¹	B11
25.3 nM	0.134 s⁻¹	5.27e+06 M⁻¹ s⁻¹	B12
42.4 nM	0.425 s⁻¹	1.03e+07 M⁻¹ s⁻¹	B13
7.1 nM	0.0498 s⁻¹	6.93e+06 M⁻¹ s⁻¹	B14
2.9 nM	0.0289 s⁻¹	9.98e+06 M⁻¹ s⁻¹	B15
20.7 nM	0.207 s⁻¹	1.58e+07 M⁻¹ s⁻¹	B16
12.4 nM	0.0972 s⁻¹	7.83e+06 M⁻¹ s⁻¹	B17
15.3 nM	0.154 s⁻¹	1.89e+07 M⁻¹ s⁻¹	B18
0.4 nM	0.00401 s⁻¹	6.2e+06 M⁻¹ s⁻¹	B19
62.3 nM	0.373 s⁻¹	5.98e+06 M⁻¹ s⁻¹	B20
18.8 nM	0.0895 s⁻¹	4.75e+06 M⁻¹ s⁻¹	B21
1.4 nM	0.013 s⁻¹	9.2e+06 M⁻¹ s⁻¹	B22

What follows are binders tested against T2, recombinant full-length human alpha … (assay: SPR, Biacore T200, as in Example 3; Fab injected;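 note: ligands amine-coupled on CM5 chip flow cells, HBS-EP+ running buffer, kinetic data fitted with 1:1 model allowing local bulk contribution and global Rmax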).
Method: as §1

Kd	koff	kon	Binder
152 nM	0.938 s⁻¹	6.17e+06 M⁻¹ s⁻¹	B10
1130 nM	0.0517 s⁻¹	45600 M⁻¹ s⁻¹	B11
61.3 nM	0.566 s⁻¹	9.22e+06 M⁻¹ s⁻¹	B12
1310 nM	0.493 s⁻¹	375000 M⁻¹ s⁻¹	B13
15.2 nM	0.0433 s⁻¹	2.84e+06 M⁻¹ s⁻¹	B14
	0.0799 s⁻¹	1.92e+07 M⁻¹ s⁻¹	B15
23.9 nM	0.189 s⁻¹	7.89e+06 M⁻¹ s⁻¹	B16
23.1 nM	0.185 s⁻¹	8e+06 M⁻¹ s⁻¹	B17
16.9 nM	0.17 s⁻¹	1.22e+07 M⁻¹ s⁻¹	B18
0.7 nM	0.00745 s⁻¹	1.33e+07 M⁻¹ s⁻¹	B19
1660 nM	0.44 s⁻¹	265000 M⁻¹ s⁻¹	B20
50.4 nM	0.151 s⁻¹	2.99e+06 M⁻¹ s⁻¹	B21
1.9 nM	0.0191 s⁻¹	1.39e+07 M⁻¹ s⁻¹	B22

What follows are binders tested against T1, purified recombinant human alpha … (assay: affinity for human alpha synuclein fibrils, IgG4P; method not given).

Kd	Binder
0.316 nM	B23
0.547 nM	B24
0.377 nM	B25
0.198 nM	B26
22.3 nM	B27
0.58 nM	B28
0.3 nM	B29
0.246 nM	B30
5.28 nM	B31
